This note sets out measurements from patent US11813311B2, “Treatment and prevention of metabolic diseases” (Singapore Health Services PTE LTD., priority 2019, dated 2023).

Common to all, as to format: in vivo, mouse
The subject of one experiment is WDF-fed mice. Nature of the experiment: WDF diet-induced obesity/T2D model (Example 2). The procedure:
Mice were injected intraperitoneally with 10 mg/kg of an antagonist anti-IL-11 antibody, an antagonist anti-IL-11Rα antibody, or an identical amount of isotype-matched IgG control antibody. The anti-IL-11 and anti-IL-11Rα antibodies bind to mouse IL-11 and mouse IL-11Rα respectively, and inhibit IL-11 mediated signalling.
In order to establish metabolic diseases such as obesity and T2D, mice were fed Western diet (D12079B, Research Diets), supplemented with 15% weight/volume fructose in drinking water (WDF) for 16 weeks, from 12 weeks of age.
Total body fat and lean mass measurements were performed every two weeks by EchoMRI analysis using 4in1 Body Composition Analyzer for Live Small Animals.
For fasting blood glucose measurements, mice were fasted for 6 hours prior to blood collection (via tail snip), and Accu-Chek blood glucose meter was used to obtain fasting glucose measurements.
For intraperitoneal glucose tolerance tests, mice were fasted for 6 h prior to being subjected to ipGTT. Basal fasting glucose was measured by tail snip using Accu-Chek blood glucose meter. 2 g/kg lean mass glucose was injected intraperitoneally, and glucose measurements were taken every 15 min for 2 hours. The area under the curve (AUC) was calculated, and plotted as bar graphs.
For histological analysis, pancreas samples were excised and fixed for 24 hours at RT in 4% neutral-buffered formalin (NBF), and stored in 30% sucrose. 5 μm cryosections were stained with either glucagon or insulin antibodies overnight, and visualized with ImmPRESS HRP IgG polymer detection kit (Vector Laboratories) with ImmPACT DAB Peroxidase Substrate (Vector Laboratories) according to standard protocols, and examined by light microscopy.

Another experiment deals with HFMCD-fed mice. The experiment in a line: HFMCD diet model of cachexia-related weight loss. The text has this: High fat methionine choline deficient diet (HFMCD) was used to establish cachexia-like metabolic disorder. In order to establish cachexia weight loss and lean mass loss, C57BL/6N mice were fed with methionine and choline deficient (HFMCD) diet supplemented with 60 kcal % fat (A06071301B, Research Diets).
Five-week old male mice were fed a methionine- and choline-deficient (MCD) diet with 60 kcal % fat (A06071301B, Research Diets), designated a high fat MCD (HFMCD) diet, which causes more severe NASH than an MCD diet alone. Control mice were fed with normal chow (NC; Specialty Feeds). Mice were intraperitoneally injected twice per week with 10 mg/kg of anti-IL-11 antibody or anti-IL-11 RA antibody, or identical concentration of IgG isotype control one week after they had received HFMCD for the same treatment duration. Body weight was measured weekly.
To investigate further the effect of inhibition of IL-11-mediated signalling with respect to cachexia, a range of doses of anti-IL-11 therapy were studied in the MCD model. Five-week old male mice were fed on the HFMCD or NC diet as before for one week to induce cachexia, resulting in a ˜15% loss in body weight in MCD mice. After the initial week, mice were intraperitoneally injected twice per week with 0.5, 1, 5 or 10 mg/kg of anti-IL-11 or anti-IL-11 RA antibody. Three antibodies were studied: two anti-IL-11 ((1) and (2)), and one anti-IL-11 RA. 10 mg/kg of IgG isotype antibody was used as a control.
Body weight and food consumption were measured weekly. For food consumption, average food intake was measured (g/mouse/week) in food hoppers from cages (n=3 mice per cage).

Experiment [1] concerns mice with folate-induced kidney injury. The experiment in a line: Weight loss after folate-induced acute kidney injury. As for the experimental part: Kidney injury was induced by IP injection of folic acid (180 mg/kg) in vehicle (0.3M NaHCO3) to 10-week old male mice; control mice were administered vehicle alone. Animals were sacrificed 28 days post-injection. Mice were intraperitoneally injected every 3 days with 20 mg/kg of anti-IL-11 antibody, anti-IL-11 RA antibody or identical concentration of IgG isotype control starting from 1 hour before folic acid administration until the mice were sacrificed.
In a second experiment kidney injury was induced as before by IP injection of folic acid. Mice were only treated with anti-IL-11 antibody or IgG control from 21 days after kidney injury. Animal weight was assessed before and after antibody treatment.

Experiment [2] deals with mice with HFMCD-induced liver fibrosis. The experiment in a line: HFMCD fibrosis reversal with switch to normal chow plus antibody. Particulars: for regression of Erk activation: after removal of the metabolic stimulus; for reversal of hepatic collagen content: HFMCD 10 weeks then normal chow; for Mmp2 expression / Timp1 expression: mice with severe fibrosis. As for the experimental part: FIGS. 21A to 21L. Inhibition of Il-11 signalling reverses NASH pathologies in preclinical models and HSC-to-myofibroblast transformation. (A) Schematic showing therapeutic dosing regime in NASH reversal experiment for data shown in (B-G). Mice were fed with WDF for 16 weeks to induce NASH and then treated with (10 mg/kg) X209 or IgG for 8 weeks while they were on continuous WDF feeding. (B) Total liver hydroxyproline content, the levels of (C) liver triglycerides, (D) serum ALT, (E), fasting blood glucose, (F) serum triglycerides, and (G) serum cholesterol in mice on NC and IgG- and X209-treated WDF (n≥5/group). (H) Schematic showing reversal experiment in which fibrosis was established by feeding mice HFMCD for 10 weeks and then replacing this with NC and initiating antibody (X203 and X209) therapy. Mice were euthanized at the indicated time points. (I) Total liver hydroxyproline content (dotted line represents the mean value of NC=0.93) and (J) relative mRNA expression of Mmp2/Timp1 at 1-, 3-, 6-weeks after concurrent metabolic intervention (diet switch) and X203, X209, or IgG treatment (n≥3/group). Quantification of ACTA2^+ve immunostaining (scale bars, 200 μm) following incubation (K) with TGFβ1 or (L) with PDGF, either prior to or after the addition of X203, X209, or IgG (n=5/group). (K-L) TGFβ1 (5 ng/ml), PDGF (20 ng/ml), IgG, X203 and, X209 (2 μg/ml). (B-G, K-L) Data are shown as box-and-whisker with median (middle line), 25th-75th percentiles (box) and min-max percentiles (whiskers); (I) data are shown as mean±s.d; (J) data are represented as line chart (mean) and transparencies indicate s.d. (B) Two-tailed Student's t-test (C-G,K-L) two-tailed, Tukey-corrected Student's t-test; (I-J) two-way ANOVA. FC: fold change; NC: normal chow; WDF: Western diet+15% (w/v) fructose; HFMCD: high fat methionine- and choline-deficient.
Furthermore, combination therapies may be beneficial for reversing fibrosis in NASH′. To address these points, severe liver fibrosis was established using HFMCD for 10 weeks, then converted mice to normal chow, mimicking a robust metabolic intervention, and initiated anti-IL-11 treatments in parallel (FIG. 21H).

The mark [3] stands for this setting: 0.5, 1, 5 or 10 mg/kg twice per week.
The mark [4] stands for this setting: 20 mg/kg every 3 days from 1 hour before folic acid.
Where [5] appears, read: after three weeks of antibody treatment.
Setting [6] is: at six weeks of antibody treatment.

B1: X209: mouse anti-mouse IL-11Rα IgG (IgG1κ), neutralising; VH SEQ ID NO:24, VL SEQ ID NO:25 (antibody, V domains shown)
VH: QVQLQQPGAELVRPGSSVKLSCKASGYTFTNYWMHWLKQRPVQGLEWIGNIGPSDSKTHYNQKFKDKATLTVDKSSSTAYMQLNSLTSEDSAVYYCARGDYVLFTYWGQGTLVTVSA
VL: DIVLTQSPATLSLSPGERATLSCRASQSISNNLHWYQQKSHEAPRLLIKYASQSISGIPARFSGSGSGTDFTLSFSSLETEDFAVYFCQQSYSWPLTFGQGTKLEIK
modifications: Enx209 VH; Enx209 VL
B1: in the experiment with WDF-fed mice (WDF-fed mice vs IgG control), the body weight entry is given as “significant reduction in body weight”, the “fasting blood glucose levels” value is “significantly lower”, the fat mass result was “significantly reduced fat mass” and the “glucose tolerance (ipGTT)” value is “significant improvement in glucose tolerance”. Also, in the experiment on WDF-fed mice (WDF-fed mice vs IgG control), the lean mass entry is on record as “increase in lean mass”, the serum cholesterol levels entry is given as “significantly lower” and the serum triglyceride levels result is “significantly lower”. The pancreas weight result with WDF-fed mice (treated from 8 to 16 weeks or from 16 to 24 weeks) was “remarkable protection against WDF-induced loss of pancreas”. For the same molecule, in the experiment with WDF-fed mice (treatment from 16 to 24 weeks), the “glucagon staining in pancreatic islets” value is listed as “remarkably reduced”, the “insulin expression in the islets” value is “improved” and the islet hyperplasia result is listed as “remarkably reduced”. Besides, the body weight result in the experiment with HFMCD-fed mice (10 mg/kg twice per week from week 1, listed as anti-IL-11 RA, 10 mg/kg) was “quickly regained weight and returned to normal, or near-normal, weight by 5 weeks later”. Moreover, in the experiment on HFMCD-fed mice (10 mg/kg twice per week from week 1, listed as anti-IL-11Rα, 10 mg/kg), the body weight result is given as “returned to normal or near-normal weight”. Besides, in the experiment with HFMCD-fed mice (setting [3]), the body weight result is “most effective in reversing weight loss” and the food consumption result is “greatest increase in food intake”. Also, in experiment [1] (setting [4]), the body weight result is recorded as “returned to normal, or near normal, weight by 3 weeks later”. Also, in experiment [2], the “regression of Erk activation” value was “accelerated”, the Mmp2 expression result is recorded as “rapidly upregulated” and the Timp1 expression entry was “downregulated”. Further, the “reversal of hepatic collagen content” value in experiment [2] (setting [5]) is reported as 24%. In addition, the “reversal of hepatic collagen content” value in experiment [2] (setting [6]) stood at 46%.

B2: X203: mouse anti-mouse IL-11 IgG (IgG1κ), neutralising; VH SEQ ID NO:22, VL SEQ ID NO:23 (antibody, V domains shown)
VH: EVQLQQSGPELVKPGASVKIPCKASGYTFTDYNMDWVKQSHGKSLEWIGDINPHNGGPIYNQKFTGKATLTVDKSSSTAYMELRSLTSEDTAVYYCARGELGHWYFDVWGTGTTVTVSS
VL: DIVLTQSPASLAVSLGQRATISCRASKSVSTSGYSYIHWYQQKPGQPPKLLIYLASNLDSGVPARFSGSGSGTDFTLNIHPVEEEDAATYYCQHSRDLPPTFGGGTKLEIK
modifications: Enx203 VH; Enx203 VL
As to B2, the body weight result in the experiment on HFMCD-fed mice (10 mg/kg twice per week from week 1, listed as anti-IL-11, 10 mg/kg) was “quickly regained weight and returned to normal, or near-normal, weight by 5 weeks later”; in experiment [1] (setting [4]) it was “returned to normal, or near normal, weight by 3 weeks later”; in experiment [1] (treated from 21 days after kidney injury) it was “started to regain weight upon initiation of treatment”. In addition, the “regression of Erk activation” value in experiment [2] is reported as “accelerated”. For the same molecule, the “reversal of hepatic collagen content” value is on record as 18% in experiment [2] (setting [5]) and 37% in experiment [2] (setting [6]). For the same molecule, in experiment [2], the Mmp2 expression entry is reported as “rapidly upregulated”. The Timp1 expression entry in experiment [2] is listed as “downregulated”.
